Experiment [1] addresses T1, human USP18 (residues 16-372), tag removed (human, UniProt Q9UMW8 16-372).
T1 sequence (looked up): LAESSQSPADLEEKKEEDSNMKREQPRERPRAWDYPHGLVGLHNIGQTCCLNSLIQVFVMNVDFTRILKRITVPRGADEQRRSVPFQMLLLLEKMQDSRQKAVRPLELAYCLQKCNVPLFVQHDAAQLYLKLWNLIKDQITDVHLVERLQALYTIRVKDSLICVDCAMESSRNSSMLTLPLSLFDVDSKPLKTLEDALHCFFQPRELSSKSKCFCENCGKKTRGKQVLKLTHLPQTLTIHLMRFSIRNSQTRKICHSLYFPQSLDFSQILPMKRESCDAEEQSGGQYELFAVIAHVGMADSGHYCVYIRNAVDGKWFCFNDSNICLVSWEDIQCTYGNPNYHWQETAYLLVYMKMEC
Description: covalent adduct formation with an active-site probe.

Experiment [2] addresses T2, murine USP18^IBB-2-USP7, His6-tagged (mouse, UniProt Q9WTV6 1-368, residues 256-263 (S-A-R-N-S-R-T-E) replaced by the corresponding residues …).
T2 sequence (looked up): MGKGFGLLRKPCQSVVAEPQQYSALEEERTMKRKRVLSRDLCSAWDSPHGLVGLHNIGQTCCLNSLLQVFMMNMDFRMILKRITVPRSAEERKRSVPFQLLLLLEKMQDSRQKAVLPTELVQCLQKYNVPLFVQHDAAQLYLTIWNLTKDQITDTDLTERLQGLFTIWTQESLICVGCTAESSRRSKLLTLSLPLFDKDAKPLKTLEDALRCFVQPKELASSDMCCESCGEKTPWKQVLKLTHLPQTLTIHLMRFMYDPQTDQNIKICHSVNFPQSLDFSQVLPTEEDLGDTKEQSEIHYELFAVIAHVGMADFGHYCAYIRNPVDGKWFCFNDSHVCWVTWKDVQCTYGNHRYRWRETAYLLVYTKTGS
Nature of the experiment: cell-based or functional assay.

The target in experiment [3] is T3, murine USP18 catalytic core (residues 46-368), His6-tagged (mouse, UniProt Q9WTV6 46-368).
T3 sequence (looked up): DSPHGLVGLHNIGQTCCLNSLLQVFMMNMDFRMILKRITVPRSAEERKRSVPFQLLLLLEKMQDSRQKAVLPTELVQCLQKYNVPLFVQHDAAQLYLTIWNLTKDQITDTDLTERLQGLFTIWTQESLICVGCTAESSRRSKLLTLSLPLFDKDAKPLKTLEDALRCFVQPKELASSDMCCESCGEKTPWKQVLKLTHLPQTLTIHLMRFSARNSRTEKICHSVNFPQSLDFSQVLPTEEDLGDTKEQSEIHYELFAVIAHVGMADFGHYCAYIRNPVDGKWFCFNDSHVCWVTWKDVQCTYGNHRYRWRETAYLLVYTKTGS
Nature of the experiment: SPR.

Numbering of substitutions follows the chain as printed. Numbers in names are those of the source.

B1: mouse ISG15-PA (full-length ISG15 propargylamide probe, residues 1-154, C76S) (natural protein, UniProt Q64339 1-154, looked up)
chain: MAWDLKVKMLGGNDFLVSVTNSMTVSELKKQIAQKIGVPAFQQRLAHQTAVLQDGLTLSSLGLGPSSTVMLVVQNSSEPLSILVRNERGHSNIYEVFLTQTVDTLKKKVSQREQVHEDQFWLSFEGRPMEDKELLGEYGLKPQCTVIKHLRLRG
modifications: C-terminal propargylamide (PA)
Regarding B1, the binding result in experiment [1] was “binds”.

B2: mouse ISG15 (residues 1-155, C76S) (natural protein, UniProt Q64339 1-155, looked up)
chain: MAWDLKVKMLGGNDFLVSVTNSMTVSELKKQIAQKIGVPAFQQRLAHQTAVLQDGLTLSSLGLGPSSTVMLVVQNSSEPLSILVRNERGHSNIYEVFLTQTVDTLKKKVSQREQVHEDQFWLSFEGRPMEDKELLGEYGLKPQCTVIKHLRLRGG
Turning to B2, the “catalytic activity towards ISG15-FP, percent of wild type” value in experiment [2] was 65 % of wt activity. Further, the Kd (usually the free concentration of one partner at which half of the binding sites on the other are occupied at equilibrium, for simple one-to-one binding) in experiment [3] came out at 1490 ± 30 nM.

B3: mouse ISG15-W121R (C76S) (natural protein, UniProt Q64339 1-155, looked up)
chain: B2 chain with W121R
With B3, the “stoichiometry N” value in experiment [3] is 0.4 ISG15 per immobilized USP18.

The record behind these values is article PMC5405867 (Nature structural & molecular biology, 2017).
